Target: biotinylated bovine transferrin (bovine, UniProt Q29443 20-704, biotinylated (sites not given))
Assay: affinity chromatography: H. somnus total membranes mixed with biotinylated bovine transferrin, captured on streptavidin-agarose

Sequence of biotinylated bovine transferrin (Q29443 20-704 limits assumed): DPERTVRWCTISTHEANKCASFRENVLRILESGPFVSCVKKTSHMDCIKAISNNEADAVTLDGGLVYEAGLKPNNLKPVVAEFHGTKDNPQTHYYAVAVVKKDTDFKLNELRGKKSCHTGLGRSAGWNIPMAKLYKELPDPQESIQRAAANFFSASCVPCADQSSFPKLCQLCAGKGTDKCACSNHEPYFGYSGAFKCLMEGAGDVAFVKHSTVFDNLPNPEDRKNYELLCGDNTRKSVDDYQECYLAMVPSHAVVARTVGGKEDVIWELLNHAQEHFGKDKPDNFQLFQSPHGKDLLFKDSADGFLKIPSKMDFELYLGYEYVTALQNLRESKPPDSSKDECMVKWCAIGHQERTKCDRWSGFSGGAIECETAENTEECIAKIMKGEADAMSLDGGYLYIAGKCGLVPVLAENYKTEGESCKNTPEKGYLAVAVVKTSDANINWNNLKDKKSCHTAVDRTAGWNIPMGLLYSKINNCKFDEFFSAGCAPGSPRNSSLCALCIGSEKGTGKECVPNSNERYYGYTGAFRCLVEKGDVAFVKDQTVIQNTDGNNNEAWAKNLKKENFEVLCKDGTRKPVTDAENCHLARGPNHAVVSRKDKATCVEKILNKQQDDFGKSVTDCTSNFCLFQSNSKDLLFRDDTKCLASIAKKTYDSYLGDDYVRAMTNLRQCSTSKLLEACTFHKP

Binder	binding result
H. somnus transferrin-binding protein 1 (native, from strain HS25) (receptor, also called Tbp1; native H. somnus Tbp1) DTESPSSNTEAVLELEAIQVQAKHEISRHDNEVTGLGKVVKSSEDIDKELILNIRDLTRYDPGISVVEQGRGATSGYAMRGVDRNRVAMLVDGLGQAQSYSTLKSDANGGAINEIEYENIKSIELSKGSSSAEYGSGALGGAVGFRTKEADDVIKEGQNWGLNSKTAYSSKNSQFTQSVAGAFRVGGFDSLAIFTHRKGKETRVHPAAEEIQHTYQPLEGYFNRYEVDQNRNGKPVLANAYYILADECSNLSDPSCRHAKAKTNRVGAPENNPNWTPEEQAQAAKMPYPTRTASAKDYTGPDRISPNPMDYQSHSFFWKGGYRLSPNHYVGGVLEHTKQRYDIRDMTQRAYYTKEDICHSGSSCQTLDKNETDKGNFGITLTDNPLDGLVYDAGNQARGVRYGRGKFFNERHTKNRSGIFYRYENPDKNSWPDSLTLSIDRQDLKLSSRIHWTYCTDYPHVARCRASLDKPWSNYRTEKNDYQERLNLGQFNWEKTFNLGFTTHKVNIAAGFGTHRSTLQHGDLYAEYVTLPPYTEEKVYGEDNKVKQNPTAEEKEKLQYGNGSYDKPRVYRRKNTPELKTVNGCNETAGDNRDCSPRVITGRQYYLALRNHIAFGEWADLGLGVRYDNHTFRSNDPWTKGGNYHNWSWNAGVSLKPTRHFVVSYRVSSGFRVPAFYELYGVRTGASGKDNPLTQKEFLSRKPLKSEKAFNQEIGLAVQGDFGVIETSFFQNNYKNLLARADKYVEGLGYVTDFYNTQDVKLNGINILGRIYWEGISDRLPEGLYSTLAYNRINIKARKLHDNFTNVSEPTLEAVQPGRIIASIGYDDPEGRWGLNLSGTYSQAKQRDEVVGEKVFGKGGSIKRTINSKRTRAWYIYDLTAYYTWKEKFTLRAGIYNLTNRKYSTWESVRQSAANAVNQDLGTRSARFAARGRNFTVSMEMKF	binds
H. somnus transferrin-binding protein 2 (native, from strain HS25) (receptor, lipid modification (lipoprotein; residue not stated), The signal peptide (residues 1-19) is stated; also called Tbp2; protein with relative molecular weight of 80,000) CSSGKGGFDLDDVEHTPPSSSGSSRPTYQDVPTGQRQQEIVEEINSPALGYATEIPRRNISPMPTTGTKESNARVAITAQQVAPLSMPFNSIKEDFIKRLIAENTKKNARGRDVKYFDDTDDVLFAHDGSNLAHKRDLQYVRVGYVLGTRKIELVFSHDKKTRDQFPAGWVGYVFYQGTSPAVTLPTQTVTYKGYWDFVSDAFNERTLAEDFTQENSSATSNIPGNQIGATSMDALVNRKVSGEKINIAHSAEFTADFGSKKLSGELKSNGYVSRIENEQQDVKTRYKIDADIKGNRFVGSATAQEKSHTIFGKDADKRLEGGFFGPKAEELAGKFLTDDNSLFVVFGAKRESKGDEKLETRFDAVKISTDSNKLEKETMDTFGNAAYLVLDGRQFPLVPESNAGTTGAGNTGKNEFISTIDGSHLNKTNHENHKKYKVTVCCSNLVYVKFGSYGEQTTANDASNSTAGAATTHNSTLTNGHLFLTGERTSLTDMAKQSGAAKYIGTWQANFLSSKGQVGSVDAGDPRNDSGKSRAEFDVNFGGKTVTGKFFDADGIQPALTMDSTKIEGNGFSGTAKTTGSLQLDKGSTGAGITVTFTDAKVDGAFYGPNAEEIGGTITSNGTGDKVGGVFGAKRQELSQQK	binds

From patent US20030007981A1 (UNIVERSITY OF SASKATCHEWAN, published 2003)
